This is an account of results in PMC6080931 (The Journal of Cell Biology, 2018).

In assay [1] the target is Atg2 (untagged, overproduced, of the purified Atg2–Atg18 complexes) (S. cerevisiae) (UniProt P53855). Description: liposome flotation assay.
For assay [2], the target named is Atg2 (untagged, overproduced, of the purified Atg2–Atg18 complexes) (S. cerevisiae, UniProt P53855 1-1592). Description: liposome flotation assay.
Atg2 (untagged, overproduced, of the purified Atg2–Atg18 complexes), sequence (P53855 whole entry, one chain of several): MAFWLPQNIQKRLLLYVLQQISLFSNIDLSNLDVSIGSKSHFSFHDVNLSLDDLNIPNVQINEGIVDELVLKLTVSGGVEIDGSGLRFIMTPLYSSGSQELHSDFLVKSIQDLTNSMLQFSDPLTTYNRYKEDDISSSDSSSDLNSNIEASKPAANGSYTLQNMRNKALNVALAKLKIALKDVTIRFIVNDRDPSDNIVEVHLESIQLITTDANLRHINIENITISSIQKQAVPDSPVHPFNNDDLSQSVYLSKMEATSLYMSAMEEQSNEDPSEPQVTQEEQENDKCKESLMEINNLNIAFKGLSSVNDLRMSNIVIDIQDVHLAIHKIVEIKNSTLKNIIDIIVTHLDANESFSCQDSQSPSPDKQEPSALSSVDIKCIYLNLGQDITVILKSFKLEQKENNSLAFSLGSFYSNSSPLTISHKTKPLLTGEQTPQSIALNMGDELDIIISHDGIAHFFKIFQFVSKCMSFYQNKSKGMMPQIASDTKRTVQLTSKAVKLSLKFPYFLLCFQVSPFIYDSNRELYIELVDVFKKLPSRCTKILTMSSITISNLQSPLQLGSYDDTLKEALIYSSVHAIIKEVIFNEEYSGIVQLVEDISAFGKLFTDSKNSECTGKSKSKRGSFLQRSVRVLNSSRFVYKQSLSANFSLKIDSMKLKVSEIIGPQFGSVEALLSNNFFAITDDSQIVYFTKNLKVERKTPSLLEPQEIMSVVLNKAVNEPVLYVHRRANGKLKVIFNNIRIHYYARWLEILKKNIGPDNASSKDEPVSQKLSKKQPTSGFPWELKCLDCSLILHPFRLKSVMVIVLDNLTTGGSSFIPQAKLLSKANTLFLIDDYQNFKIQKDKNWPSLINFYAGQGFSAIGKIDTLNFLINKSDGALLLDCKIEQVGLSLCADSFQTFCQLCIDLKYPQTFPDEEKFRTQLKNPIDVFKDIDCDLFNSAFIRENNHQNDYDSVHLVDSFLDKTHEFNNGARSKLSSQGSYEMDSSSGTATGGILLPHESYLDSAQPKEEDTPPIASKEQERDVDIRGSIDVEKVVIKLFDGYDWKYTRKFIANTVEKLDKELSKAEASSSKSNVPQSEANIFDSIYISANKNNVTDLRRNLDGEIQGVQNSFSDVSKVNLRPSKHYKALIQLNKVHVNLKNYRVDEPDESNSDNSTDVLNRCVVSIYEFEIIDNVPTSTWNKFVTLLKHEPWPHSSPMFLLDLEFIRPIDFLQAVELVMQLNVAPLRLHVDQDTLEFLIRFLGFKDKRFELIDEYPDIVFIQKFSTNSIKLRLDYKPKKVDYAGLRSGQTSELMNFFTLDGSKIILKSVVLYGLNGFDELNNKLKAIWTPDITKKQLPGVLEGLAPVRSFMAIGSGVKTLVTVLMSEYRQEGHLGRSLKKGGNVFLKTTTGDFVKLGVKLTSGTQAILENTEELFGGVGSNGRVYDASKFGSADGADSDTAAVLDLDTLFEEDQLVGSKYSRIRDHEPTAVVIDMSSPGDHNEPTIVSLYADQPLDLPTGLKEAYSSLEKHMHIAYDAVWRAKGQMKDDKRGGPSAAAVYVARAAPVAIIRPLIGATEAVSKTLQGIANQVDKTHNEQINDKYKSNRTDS

Atg2 (untagged, overproduced, of the purified Atg2–Atg18 complexes) (S. cerevisiae), sequence (P53855 whole entry, one chain of several): as above

In assay [1], “Atg18^FAAG-TAP (overproduced, mutant unable to bind PtdIns3P) (from UniProt P43601 1-500) (natural protein)” came in with a percent of Atg18^FAAG on liposomes with Atg9 of under 58%.

B1: Atg18-TAP (overproduced, of the purified Atg2–Atg18 complexes) (natural protein, S. cerevisiae, UniProt P43601 1-500, looked up)
chain: MSDSSPTINFINFNQTGTCISLGTSKGFKIFNCEPFGKFYSEDSGGYAIVEMLFSTSLLALVGIGDQPALSPRRLRIINTKKHSIICEVTFPTSILSVKMNKSRLVVLLQEQIYIYDINTMRLLHTIETNPNPRGLMAMSPSVANSYLVYPSPPKVINSEIKAHATTNNITLSVGGNTETSFKRDQQDAGHSDISDLDQYSSFTKRDDADPTSSNGGNSSIIKNGDVIVFNLETLQPTMVIEAHKGEIAAMAISFDGTLMATASDKGTIIRVFDIETGDKIYQFRRGTYATRIYSISFSEDSQYLAVTGSSKTVHIFKLGHSMSNNKLDSDDSNMEEAAADDSSLDTTSIDALSDEENPTRLAREPYVDASRKTMGRMIRYSSQKLSRRAARTLGQIFPIKVTSLLESSRHFASLKLPVETNSHVMTISSIGSPIDIDTSEYPELFETGNSASTESYHEPVMKMVPIRVVSSDGYLYNFVMDPERGGDCLILSQYSILMD
With B1, in assay [2], the “stoichiometry N” value is about 1 ratio.
